Test results reported in patent US11660961B2, “Host cells and methods for producing isopentenol from mevalonate” (The Regents of the University of California, priority 2015, dated 2023).
Positions count from the first letter of the chain named. Numbers in names are those of the source. Where “and” joins values, the source holds several entries; their conditions need not be identical. Equal entries are not always repeated. Where two headings read alike, the source gives them in different places.

Experiments:
[1] = substrate MVAPP, cited from earlier work
[2] = In vitro decarboxylase activity toward MVA; assay type: biochemical
Experimental: In vitro enzyme kinetics of decarboxylases are performed as described in previous studies (Barta et al., 2012 and Vannice et al., 2014). Briefly, enzymatic activity of decarboxylase is determined by a spectrophotometer assay quantifying ADP product formation, which is coupled to NADH oxidation by pyruvate kinase/lactate dehydrogenase. Assay mixtures are prepared in 50 mM HEPES-KOH (pH 7.5) containing 10 mM MgCl2, 400 μM phosphoenolpyruvate, 200 μM NADH, 4 mM ATP, and 25 U of pyruvate kinase/lactate dehydrogenase (Sigma, P0294). […]

E. coli BW25113 = experiment: Isopentenol production in E. coli; assay type: cell-based, Escherichia coli; settings: for isopentenol productivity: pathway II, through 30 hours of batch fermentation; for effect on in vivo isopentenol production: expressed in IPP-bypass pathway II in E. coli
Experimental: E. coli BW25113 harboring two plasmids is used for isopentenol production. Seed cultures of all production strains are prepared by growing single colonies in LB medium containing 100 μg/mL ampicillin and 30 μg/mL chloramphenicol overnight at 37° C. with shaking at 200 rpm. The seed cultures are diluted in EZ-Rich defined medium (Teknova, USA) containing 10 g/L glucose (1%, w/v), 100 μg/mL ampicillin and 30 μg/mL chloramphenicol. The E. coli cell cultures are incubated in rotary shakers (200 rpm) at 37° C., and 0.5 mM IPTG is added to induce protein expression at OD600 of 0.6-0.8. To provide different levels of aeration, identical volumes of the cell culture are split into two flasks for incubation at 30° C. with shaking at either 200 rpm or 30 rpm.
For isopentenol quantification, 250 μL of cell culture is combined with 250 μL of ethyl acetate containing 1-butanol (30 mg/L) as an internal standard. This mixture of ethyl acetate and cell culture is vigorously shaken for 15 min and subsequently centrifuged at 13,000 g for 2 min to separate ethyl acetate from the aqueous phase. 100 μL of the ethyl acetate layer was diluted 5-fold, and 1 μL is analyzed by Agilent GCMS equipped with Cyclosil-B column (Agilent, USA) or Thermo GCFID equipped with DB-WAX column (Agilent, USA) for quantitation of isopentenol.

[3] = In vitro enzyme kinetics of decarboxylases, ADP formation coupled to NADH oxidation; assay type: biochemical; settings: for Km / kcat / % of WT (kcat/Km): substrate MVAP; for % of WT (kcat/Km): relative to PMDsc wild type
Experimental: A plasmid encoding a wild type mevalonate diphosphate decarboxylase from Saccharomyces cerevisiae (PMDsc) with N-terminal His-tag (pSKB3-PMDsc) is transformed into E. coli BL21 (DE3). A seed culture of BL21 (DE3) harboring pSKB3-PMDsc is prepared by inoculating a single colony and growing it overnight in Luria-Bertani (LB) medium containing kanamycin (50 μg/mL). The seed culture is diluted in Terrific Broth supplemented with 2% glycerol and 50 μg/mL kanamycin and incubated at 37° C. until the optical density of the culture at 600 nm (OD600) reached to 0.6-0.8. The cell culture is supplemented with isopropyl-β-D-thiogalactopyranoside (IPTG) to the final concentration of 0.5 mM and transferred to 18° C. for protein expression overnight. Cells are collected by centrifugation and re-suspended in 50 mM Tris-HCl (pH 7.5) buffer containing 300 mM NaCl and 10 mM imidazole. Cells are lysed by sonication and purified by HisPur Cobalt Resins (Thermo Scientific, USA). The purified PMDss is desalted in 10 mM Tris-HCl (pH 7.5) containing 50 mM NaCl, 0.5 mM dithiothreitol (DTT) and 20% glycerol, and flash-frozen in liquid nitrogen for storage at −80° C. All PIVD mutants, PMDsc, and NudB are purified as described above, except that NudB is desalted in 50 mM Tris-HCl (pH 8.0) buffer containing 0.1 mM EDTA, 1 mM DTT and 20% glycerol.
In vitro enzyme kinetics of decarboxylases are performed as described in previous studies (Barta et al., 2012 and Vannice et al., 2014). Briefly, enzymatic activity of decarboxylase is determined by a spectrophotometer assay quantifying ADP product formation, which is coupled to NADH oxidation by pyruvate kinase/lactate dehydrogenase. Assay mixtures are prepared in 50 mM HEPES-KOH (pH 7.5) containing 10 mM MgCl2, 400 μM phosphoenolpyruvate, 200 μM NADH, 4 mM ATP, and 25 U of pyruvate kinase/lactate dehydrogenase (Sigma, P0294). The reaction is initiated by addition of various concentrations of MVAP from 100 μM to 4,000 μM, and the reaction velocity is determined by monitoring OD at 340 nm in Spectramax 384plus microplate reader (Molecular Devices, USA).

[4] = In vitro hydrolysis of IPP by purified Nudix hydrolase; assay type: biochemical; settings: purified enzyme with IPP; up to 16 hours
Experimental: All metabolites are analyzed by liquid chromatography mass spectrometry (LC-MS; Agilent Technologies 1200 Series HPLC system and Agilent Technologies 6210 time-of-flight mass spectrometer) on a ZIC-HILIC column (150 mm length, 2.1-mm internal diameter, and 3.5-μm particle size). Standard chemicals (IPP and IP) are purchased from Sigma-Aldrich (USA). Metabolites are eluted isocratically with a mobile phase composition of 64% (v/v) acetonitrile containing 50 mM ammonium acetate with a flow rate of 0.15 mL/min. IPP and IP from E. coli extracts or enzyme assay are quantified via […] calibration curves ranging from 781.25 nM to 200 μM.

[5] = In vitro enzyme kinetics of decarboxylases, ADP formation coupled to NADH oxidation; assay type: biochemical; settings: in vitro assay reactions using cell lysates
[6] = In vitro hydrolysis of IP to isopentenol (purified enzyme or cell lysates); assay type: biochemical; settings: purified NudB or lysates of cells overexpressing the phosphatase
Experimental: To identify IP-hydrolyzing endogenous phosphatases, single gene knockout mutants of 36 phosphatases, of which substrates are mostly mono-phosphorylated metabolites, are retrieved from the Keio collection (Baba et al., 2006). 1 mL overnight cultures from each mutant are concentrated in 0.5 mL of 50 mM Tris-HCl (pH 8.0) buffer containing 1 mM DTT and ˜50 mg of glass beads (<100 μm, Sigma-Aldrich, USA). Cells are lysed by bead-beating for 2 min at 6.0 M/s (MP biomedicals Fast Prep, USA). After centrifugation of cell lysates at 20,000 g for 10 min, clear supernatant is used for assay reaction containing 0.5 mM isopentenyl monophosphate (IP). An equal volume of ethyl acetate is added to 100 μL of assay reaction after incubating overnight at 30° C., and isopentenol is extracted for 10 min by vigorous mixing.
Coding sequences of agp, aphA, and yqaB are amplified from BW25113 genome by PCR, and they are subsequently cloned to pBbE1a vector (Lee et al., 2011) for over-expression. Expression of these three genes are induced by addition of 0.5 mM IPTG to the cell cultures, and cell lysates of each sample are prepared with three biological replicates as described above for screening of the 36 mutants. 600 μL of assay reactions containing cell lysates, 1 mM DTT are prepared and the reaction is initiated by addition of 0.5 mM IP. […] Quantification of metabolites

B1: PMDsc WT: wild type mevalonate diphosphate decarboxylase from Saccharomyces cerevisiae (protein, UniProt P32377 1-396, looked up)
Diphosphomevalonate …: MTVYTASVTAPVNIATLKYWGKRDTKLNLPTNSSISVTLSQDDLRTLTSAATAPEFERDTLWLNGEPHSIDNERTQNCLRDLRQLRKEMESKDASLPTLSQWKLHIVSENNFPTAAGLASSAAGFAALVSAIAKLYQLPQSTSEISRIARKGSGSACRSLFGGYVAWEMGKAEDGHDSMAVQIADSSDWPQMKACVLVVSDIKKDVSSTQGMQLTVATSELFKERIEHVVPKRFEVMRKAIVEKDFATFAKETMMDSNSFHATCLDSFPPIFYMNDTSKRIISWCHTINQFYGETIVAYTFDAGPNAVLYYLAENESKLFAFIYKLFGSVPGWDKKFTTEQLEAFNHQFESSNFTARELDLELQKDVARVILTQVGSGPQETNESLIDAKTGLPKE
Km ([1]; Krepkiy and Miziorko, 2004): 123 µM | kcat ([1]; literature): 5.9 s⁻¹ and 5.4 s⁻¹ | activity on MVA [2]: too low to determine the kinetic parameters | isopentenol productivity (E. coli BW25113): 15.9 mg/L/h | Km toward MVAP, fold higher than reported Km toward MVAPP ([3]; MVAP vs native substrate MVAPP): ~8 fold | kcat toward MVAP, fold lower than reported kcat toward MVAPP ([3]; MVAP vs native substrate MVAPP): about 35 fold | Km [3]: 990 µM | kcat [3]: 0.14 s⁻¹ | % of WT (kcat/Km) [3]: 100%

B2: NudF: NudF of B. subtilis, identified as a IPP hydrolase (protein, UniProt P54570 1-185, looked up)
ADP-ribose pyrophosphatase: MKSLEEKTIAKEQIFSGKVIDLYVEDVELPNGKASKREIVKHPGAVAVLAVTDEGKIIMVKQFRKPLERTIVEIPAGKLEKGEEPEYTALRELEEETGYTAKKLTKITAFYTSPGFADEIVHVFLAEELSVLEEKRELDEDEFVEVMEVTLEDALKLVESREVYDAKTAYAIQYLQLKEALQAQK
IPP hydrolysis product [4]: hydrolyze IPP to IP, but not to isopentenol

B3: S155E: PMDsc mutant, serine 155 mutated to glutamate (protein, UniProt P32377 1-396, looked up, variant S155E)
Diphosphomevalonate …: B1 Diphosphomevalonate … with S155E
product formation from MVAP [5]: do not produce detectible amount of product

B4: S208E: PMDsc mutant, serine 208 mutated to glutamate (protein, UniProt P32377 1-396, looked up, variant S208E)
Diphosphomevalonate …: B1 Diphosphomevalonate … with S208E
product formation from MVAP [5]: do not produce detectible amount of product

B5: PMDsc R74H: PMDsc mutant R74H (protein)
chain: B1 Diphosphomevalonate … with R74H
activity on MVA [2]: do not show detectible hydrolysis activity on MVA | isopentenol productivity (E. coli BW25113): 20.4 mg/L/h | Km [3]: 770 µM | kcat [3]: 0.23 s⁻¹ | % of WT (kcat/Km) [3]: 220% | % of WT (kcat/Km) ([3]; listed as R74H): 220%

B6: PMDsc I145F: PMDsc mutant I145F (protein)
chain: B1 Diphosphomevalonate … with I145F
activity on MVA [2]: do not show detectible hydrolysis activity on MVA | effect on in vivo isopentenol production (E. coli BW25113): reduces isopentenol titer and productivity | Km [3]: 1360 µM | kcat [3]: 0.28 s⁻¹ | % of WT (kcat/Km) [3]: 147% | % of WT (kcat/Km) ([3]; listed as I145F): 147%

B7: PMDsc K22M: PMDsc mutant, K22 mutated to neutral methionine (protein)
chain: B1 Diphosphomevalonate … with K22M
effect on in vivo isopentenol production (E. coli BW25113): do not significantly change the in vivo production titer | Km [3]: 2470 µM | kcat [3]: 0.09 s⁻¹ | % of WT (kcat/Km) [3]: 25%

B8: PMDsc T209D: PMDsc mutant, T209 mutated to negatively charged aspartate (protein)
chain: B1 Diphosphomevalonate … with T209D
effect on in vivo isopentenol production (E. coli BW25113): do not significantly change the in vivo production titer | Km [3]: 990 µM | kcat [3]: 0.13 s⁻¹ | % of WT (kcat/Km) [3]: 98%

B9: aphA: E. coli-endogenous phosphatase found to hydrolyze IP to isopentenol (protein, UniProt P0AE22 26-237, looked up)
Class B acid phosphatase: SSPSPLNPGTNVARLAEQAPIHWVSVAQIENSLAGRPPMAVGFDIDDTVLFSSPGFWRGKKTFSPESEDYLKNPVFWEKMNNGWDEFSIPKEVARQLIDMHVRRGDAIFFVTGRSPTKTETVSKTLADNFHIPATNMNPVIFAGDKPGQNTKSQWLQDKNIRIFYGDSDNDITAARDVGARGIRILRASNSTYKPLPQAGAFGEEVIVNSEY
hydrolysis of IP to isopentenol [6]: significantly higher and faster hydrolysis activity on IP | effect on in vivo isopentenol production (E. coli BW25113): does not significantly increase the isopentenol production
